Measured values taken from PMC10123111.

Tested on: HaloTag-JF635-DDB2 (human)
Assay: single-molecule binding (optical tweezers, confocal)
Details: with eGFP-DDB1; from kon and koff; corrected lifetime 39.0 s; UV-C photoproducts (CPD and 6-4PP), random positions; Nuclear extracts in LUMICKS C-trap flow cell, lambda DNA tethered at about 10 pN; buffer, salt, pH and temperature not given in the material

With UV-damaged lambda DNA (40 J/m2) as the substance, how does the Kd read?
Its Kd is 0.4 nM.
